Where no end group is shown, it is not given here. [ ]: non-standard residue; d: D form. pS = N[C@@H](COP(=O)(O)O)C(=O)O
Molecular target: T1, recombinant SUFU (UniProt Q9UMX1 1-484)
T1 sequence (looked up): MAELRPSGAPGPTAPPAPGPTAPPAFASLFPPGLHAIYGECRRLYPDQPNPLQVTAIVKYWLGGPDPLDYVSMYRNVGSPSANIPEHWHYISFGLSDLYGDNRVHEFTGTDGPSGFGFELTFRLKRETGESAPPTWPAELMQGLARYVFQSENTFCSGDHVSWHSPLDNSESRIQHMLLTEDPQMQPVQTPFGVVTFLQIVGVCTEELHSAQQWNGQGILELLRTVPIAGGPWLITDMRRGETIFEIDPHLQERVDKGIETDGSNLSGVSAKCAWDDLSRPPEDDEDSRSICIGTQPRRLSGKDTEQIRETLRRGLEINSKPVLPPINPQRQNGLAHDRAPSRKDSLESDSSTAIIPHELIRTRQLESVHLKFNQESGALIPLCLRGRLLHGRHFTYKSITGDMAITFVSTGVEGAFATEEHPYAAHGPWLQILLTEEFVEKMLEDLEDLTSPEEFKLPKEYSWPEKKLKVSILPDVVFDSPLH
Experiment: SPR

B1: phosphorylated GLI3 peptide (phospho-GLI3^S313_(309–345)) (peptide, UniProt P10071 309-345, looked up)
peptide: MIRT[pS]PNSLVTILNNSRSSSSASGSYGHLSASAISPA
With B1 as the binder, how does the Kd read?
Its Kd is 5.08 µM.
